B1: Flag-PLK4 wt (polo-like kinase 4), full-length [human] / DCAF1 (VprBP), endogenous [human (endogenous in HEK293T)] (parent complex)
chain 1: MATCIGEKIEDFKVGNLLGKGSFAGVYRAESIHTGLEVAIKMIDKKAMYKAGMVQRVQNEVKIHCQLKHPSILELYNYFEDSNYVYLVLEMCHNGEMNRYLKNRVKPFSENEARHFMHQIITGMLYLHSHGILHRDLTLSNLLLTRNMNIKIADFGLATQLKMPHEKHYTLCGTPNYISPEIATRSAHGLESDVWSLGCMFYTLLIGRPPFDTDTVKNTLNKVVLADYEMPSFLSIEAKDLIHQLLRRNPADRLSLSSVLDHPFMSRNSSTKSKDLGTVEDSIDSGHATISTAITASSSTSISGSLFDKRRLLIGQPLPNKMTVFPKNKSSTDFSSSGDGNSFYTQWGNQETSNSGRGRVIQDAEERPHSRYLRRAYSSDRSGTSNSQSQAKTYTMERCHSAEMLSVSKRSGGGENEERYSPTDNNANIFNFFKEKTSSSSGSFERPDNNQALSNHLCPGKTPFPFADPTPQTETVQQWFGNLQINAHLRKTTEYDSISPNRDFQGHPDLQKDTSKNAWTDTKVKKNSDASDNAHSVKQQNTMKYMTALHSKPEIIQQECVFGSDPLSEQSKTRGMEPPWGYQNRTLRSITSPLVAHRLKPIRQKTKKAVVSILDSEEVCVELVKEYASQEYVKEVLQISSDGNTITIYYPNGGRGFPLADRPPSPTDNISRYSFDNLPEKYWRKYQYASRFVQLVRSKSPKITYFTRYAKCILMENSPGADFEVWFYDGVKIHKTEDFIQVIEKTGKSYTLKSESEVNSLKEEIKMYMDHANEGHRICLALESIISEEERKTRSAPFFPIIIGRKPGSTSSPKALSPPPSVDSNYPTRERASFNRMVMHSAASPTQAPILNPSMVTNEGLGLTTTASGTDISSNSLKDCLPKSAQLLKSVFVKNVGWATQLTSGAVWVQFNDGSQLVVQAGVSSISYTSPNGQTTRYGENEKLPDYIKQKLQCLSSILLMFSNPTPNFH
chain 2: not shown
B2: Flag-PLK4 wt (polo-like kinase 4), full-length [human] / CEP192, endogenous [human (endogenous in HEK293T)] (parent complex)
chain 1: B1 chain 1
chain 2: MEDFRGIAEESFPSFLTNSLFGNSGILENVTLSSNLGLPVAVSTLARDRSSTDNRYPDIQASYLVEGRFSVPSGSSPGSQSDAEPRERLQLSFQDDDSISRKKSYVESQRLSNALSKQSALQMETAGPEEEPAGATESLQGQDLFNRASPLEQAQDSPIDFHLQSWMNNKEPKIVVLDAGKHFEDKTLKSDLSHTSLLENEKLILPTSLEDSSDDDIDDEMFYDDHLEAYFEQLAIPGMIYEDLEGPEPPEKGFKLPTNGLRQANENGSLNCKFQSENNSSLISLDSHSSETTHKESEESQVICLPGTSNSIGTGDSRRYTDGMLPFSSGTWGTEKEIENLKGIVPDLNSECASKDVLVKTLRAIDVKLNSDNFHDANANRGGFDLTDPVKQGAECPHQNKTVLHMDGCLDTETPTVSIQENVDVASLKPISDSGINFTDAIWSPTCERRTCECHESIEKNKDKTDLPQSVVYQNEEGRWVTDLAYYTSFNSKQNLNVSLSDEMNEDFRSGSEAFDLIAQDEEEFNKEHQFIQEENIDAHNTSVALGDTSWGATINYSLLRKSRSTSDLDKDDASYLRLSLGEFFAQRSEALGCLGGGNNVKRPSFGYFIRSPEKREPIALIRKSDVSRGNLEKEMAHLNHDLYSGDLNEQSQAQLSEGSITLQVEAVESTSQVDENDVTLTADKGKTEDTFFMSNKPQRYKDKLPDSGDSMLRISTIASAIAEASVNTDPSQLAAMIKALSNKTRDKTFQEDEKQKDYSHVRHFLPNDLEKSNGSNALDMEKYLKKTEVSRYESALENFSRASMSDTWDLSLPKEQTTQDIHPVDLSATSVSVRAPEENTAAIVYVENGESENQESFRTINSSNSVTNRENNSAVVDVKTCSIDNKLQDVGNDEKATSISTPSDSYSSVRNPRITSLCLLKDCEEIRDNRENQRQNECVSEISNSEKHVTFENHRIVSPKNSDLKNTSPEHGGRGSEDEQESFRPSTSPLSHSSPSEISGTSSSGCALESFGSAAQQQQPPCEQELSPLVCSPAGVSRLTYVSEPESSYPTTATDDALEDRKSDITSELSTTIIQGSPAALEERAMEKLREKVPFQNRGKGTLSSIIQNNSDTRKATETTSLSSKPEYVKPDFRWSKDPSSKSGNLLETSEVGWTSNPEELDPIRLALLGKSGLSCQVGSATSHPVSCQEPIDEDQRISPKDKSTAGREFSGQVSHQTTSENQCTPIPSSTVHSSVADMQNMPAAVHALLTQPSLSAAPFAQRYLGTLPSTGSTTLPQCHAGNATVCGFSGGLPYPAVAGEPVQNSVAVGICLGSNIGSGWMGTSSLCNPYSNTLNQNLLSTTKPFPVPSVGTNCGIEPWDSGVTSGLGSVRVPEELKLPHACCVGIASQTLLSVLNPTDRWLQVSIGVLSISVNGEKVDLSTYRCLVFKNKAIIRPHATEEIKVLFIPSSPGVFRCTFSVASWPCSTDAETIVQAEALASTVTLTAIAESPVIEVETEKKDVLDFGDLTYGGWKALPLKLINRTHATVPIRLIINANAVAWRCFTFSKESVRAPVEVAPCADVVTRLAGPSVVNHMMPASYDGQDPEFLMIWVLFHSPKKQISSSDILDSAEEFSAKVDIEVDSPNPTPVLRSVSLRARAGIARIHAPRDLQTMHFLAKVASSRKQHLPLKNAGNIEVYLDIKVPEQGSHFSVDPKNLLLKPGEEHEVIVSFTPKDPEACEERILKIFVQPFGPQYEVVLKGEVISSGSKPLSPGPCLDIPSILSNKQFLAWGGVPLGRTQLQKLALRNNSASTTQHLRLLIRGQDQDCFQLQNTFGSEQRLTSNCEIRIHPKEDIFISVLFAPTRLSCMLARLEIKQLGNRSQPGIKFTIPLSGYGGTSNLILEGVKKLSDSYMVTVNGLVPGKESKIVFSVRNTGSRAAFVKAVGFKDSQKKVLLDPKVLRIFPDKFVLKERTQENVTLIYNPSDRGINNKTATELSTVYLFGGDEISRQQYRRALLHKPEMIKQILPEHSVLQNINFVEAFQDELLVTEVYDLPQRPNDVQLFYGSMCKIILSVIGEFRDCISSREFLQPSSKASLESTSDLGASGKHGGNVSLDVLPVKGPQGSPLLSRAARPPLDQLASEEPWTVLPEHLILVAPSPCDMAKTGRFQIVNNSVRLLRFELCWPAHCLTVTPQHGCVAPESKLQILVSPNSSLSTKQSMFPWSGLIYIHCDDGQKKIVKVQIREDLTQVELLTRLTSKPFGILSPVSEPSVSHLVKPMTKPPSTKVEIRNKSITFPTTEPGETSESCLELENHGTTDVKWHLSSLAPPYVKGVDESGDVFRATYAAFRCSPISGLLESHGIQKVSITFLPRGRGDYAQFWDVECHPLKEPHMKHTLRFQLSGQSIEAENEPENACLSTDSLIKIDHLVKPRRQAVSEASARIPEQLDVTARGVYAPEDVYRFRPTSVGESRTLKVNLRNNSFITHSLKFLSPREPFYVKHSKYSLRAQHYINMPVQFKPKSAGKFEALLVIQTDEGKSIAIRLIGEALGKN
B3: Flag-PLK4 wt (polo-like kinase 4), full-length [human] / CEP152, endogenous [human (endogenous in HEK293T)] (parent complex)
chain 1: B1 chain 1
chain 2: MSLDFGSVALPVQNEDEEYDEEDYEREKELQQLLTDLPHDMLDDDLSSPELQYSDCSEDGTDGQPHHPEQLEMSWNEQMLPKSQSVNGYNEIQSLYAGEKCGNVWEENRSKTEDRHPVYHPEEGGDEGGSGYSPPSKCEQTDLYHLPENFRPYTNGQKQEFNNQATNVIKFSDPQWNHFQGPSCQGLEPYNKVTYKPYQSSAQNNGSPAQEITGSDTFEGLQQQFLGANENSAENMQIIQLQVLNKAKERQLENLIEKLNESERQIRYLNHQLVIIKDEKDGLTLSLRESQKLFQNGKEREIQLEAQIKALETQIQALKVNEEQMIKKSRTTEMALESLKQQLVDLHHSESLQRAREQHESIVMGLTKKYEEQVLSLQKNLDATVTALKEQEDICSRLKDHVKQLERNQEAIKLEKTEIINKLTRSLEESQKQCAHLLQSGSVQEVAQLQFQLQQAQKAHAMSANMNKALQEELTELKDEISLYESAAKLGIHPSDSEGELNIELTESYVDLGIKKVNWKKSKVTSIVQEEDPNEELSKDEFILKLKAEVQRLLGSNSMKRHLVSQLQNDLKDCHKKIEDLHQVKKDEKSIEVETKTDTSEKPKNQLWPESSTSDVVRDDILLLKNEIQVLQQQNQELKETEGKLRNTNQDLCNQMRQMVQDFDHDKQEAVDRCERTYQQHHEAMKTQIRESLLAKHALEKQQLFEAYERTHLQLRSELDKLNKEVTAVQECYLEVCREKDNLELTLRKTTEKEQQTQEKIKEKLIQQLEKEWQSKLDQTIKAMKKKTLDCGSQTDQVTTSDVISKKEMAIMIEEQKCTIQQNLEQEKDIAIKGAMKKLEIELELKHCENITKQVEIAVQNAHQRWLGELPELAEYQALVKAEQKKWEEQHEVSVNKRISFAVSEAKEKWKSELENMRKNILPGKELEEKIHSLQKELELKNEEVPVVIRAELAKARSEWNKEKQEEIHRIQEQNEQDYRQFLDDHRNKINEVLAAAKEDFMKQKTELLLQKETELQTCLDQSRREWTMQEAKRIQLEIYQYEEDILTVLGVLLSDTQKEHISDSEDKQLLEIMSTCSSKWMSVQYFEKLKGCIQKAFQDTLPLLVENADPEWKKRNMAELSKDSASQGTGQGDPGPAAGHHAQPLALQATEAEADKKKVLEIKDLCCGHCFQELEKAKQECQDLKGKLEKCCRHLQHLERKHKAVVEKIGEENNKVVEELIEENNDMKNKLEELQTLCKTPPRSLSAGAIENACLPCSGGALEELRGQYIKAVKKIKCDMLRYIQESKERAAEMVKAEVLRERQETARKMRKYYLICLQQILQDDGKEGAEKKIMNAASKLATMAKLLETPISSKSQSKTTQSALPLTSEMLIAVKKSKRNDVNQKIPCCIESKSNSVNTITRTLCEQAPKRRAACNLQRLLENSEHQSIKHVGSKETHLEFQFGDGSCKHLNSLPRNVSPEFVPCEGEGGFGLHKKKDLLSDNGSESLPHSAAYPFLGTLGNKPSPRCTPGPSESGCMHITFRDSNERLGLKVYKCNPLMESENAASEKSQGLDVQEPPVKDGGDLSDCLGWPSSSATLSFDSREASFVHGRPQGTLEIPSESVKSKQFSPSGYLSDTEESNMICQTMKCQRYQTPYLSEETTYLEPGKISVNCGHPSRHKADRLKSDFKKLSSTLPSSVCQQPSRKLIVPLSSQQDSGFDSPFVNLD

Variants of: B1
Assay: co-immunoprecipitation (IP against Flag tag, Western blot quantification); HEK293T cells, 48 h overexpression, N = 3; read off a plot

| Variant | ratio to parent |
| --- | --- |
| chain 1 K41R | ~0.79 |
| chain 1 S285A, chain 1 T289A | ~0.58 |

Variants of: B1
Assay: as above
Remark: another data set of the same source

| Variant | ratio to parent |
| --- | --- |
| chain 1 R691A | ~0.05 |
| chain 1 K608A | ~0 |
| chain 1 I602E | ~0.01 |
| chain 1 K699A | ~0 |

Variants of: B1
Assay: as above
Remark: another data set of the same source

| Variant | ratio to parent |
| --- | --- |
| chain 1 K753A | ~1.6 |
| chain 1 K748A | ~1.5 |

Variants of: B2
Assay: as above

| Variant | ratio to parent |
| --- | --- |
| chain 1 R691A | ~1.5 |
| chain 1 K699A | ~0.1 |
| chain 1 K608A | ~0.1 |
| chain 1 I602E | ~0.01 |

Variants of: B3
Assay: as above

| Variant | ratio to parent |
| --- | --- |
| chain 1 K699A | ~0.09 |
| chain 1 K608A | ~0.16 |
| chain 1 R691A | ~0.83 |
| chain 1 I602E | ~0.03 |
